Changes are numbered by the printed parent chain. In names and notes the source's numbering stands. Where two headings read alike, the source gives them in different places.
B1: anti-PD-L1 ref-2 (IgG2) (antibody, V domains shown)
VH: EVQLVESGGGLVKPGGSLRLSCAASGFTFSSYGMSWVRQAPGKGLEWVATINSGGSNTYYPDSLKGRFTISRDNAKNSLYLQMNSLRAEDTAVYYCARHDGGAMDYWGQGTTVTVSS
VL: DIQMTQSPSSLSASVGDRVTITCRASESIYSYLAWYQQKPGKAPKLLVYNTKTLPEGVPSRFSGSGSGTDFTLTISSLQPEDFATYYCQHHYGTPPWTFGQGTRLEIK
B2: PL2 (full-length, N297A mutant human IgG1) (antibody, V domains shown)
VH: EVQLVQSGGGLVKPGGSLRLSCAASGFTFSSYTMNWVRQAPGKGLEWVSSISSGSDYLYYADSVKGRFTISRDNAKNSLYLQMNSLRAEDTAVYYCARNELRWYPQAGAFDIWGQGTMVTVSS
VL: QSVVTQPPSMSAAPGQNVTISCSGSSSYIESSYVSWYQQLPGTAPRLLIYDDDMRPSGIPDRFSGSKSGTSATLAITGLQTGDEADYYCEIWDSGLGGVFGGGTKLTVLS
B3: PL2 IgG1 (antibody, V domains shown)
VH: B2 VH
VL: QSVVTQPPSMSAAPGQNVTISCSGSSSYIESSYVSWYQQLPGTAPRLLIYDDDMRPSGIPDRFSGSKSGTSATLAITGLQTGDEADYYCEIWDSGLGGVFGGGTKLTVL
B4: PL2 IgG2 (antibody, V domains shown)
VH: B2 VH
VL: B3 VL
B5: PL2#5 IgG2 (antibody, V domains shown)
VH: B2 VH with Q106F
VL: B3 VL with N17R, G95R
notes: Human IgG2 backbone
B6: PL2#3 IgG1 (antibody, V domains shown)
VH: B2 VH with I112R
VL: B3 VL with N17R, S35G, D93R
notes: Human IgG1
B7: PL2#4 IgG2 (antibody, V domains shown)
VH: B2 VH with Q106L
VL: B3 VL with N17R, S25V, E90K
notes: Human IgG2 backbone
B8: PL2#39 IgG2 (antibody, V domains shown)
VH: B2 VH with Q106K
VL: B3 VL with N17R, E30T, E90K
notes: Human IgG2 backbone
B9: PL2#3 IgG2 (antibody, V domains shown)
VH: B2 VH with I112R
VL: B3 VL with N17R, S35G, D93R
notes: Human IgG2 backbone
B10: PL2#3 IgG4 (antibody, V domains shown)
VH: B2 VH with I112R
VL: B3 VL with N17R, S35G, D93R
notes: Human IgG4
B11: PL12 (full-length, N297A mutant human IgG1) (antibody, V domains shown)
VH: QVQLVQSGAEVKKPGSSVKVSCKASGGTFSSYAISWVRQAPGQGLEWMGRIIPILGIANYAQKFQGRVTITADKSTSTAYMELSSLRSEDTAVYYCARGIGSYSFGAFDIWGQGTMVTVSS
VL: QSVLTQPPSVSGAPGQRVTISCTRSSSNIGAGHDVHWYQQLPGTAPKLLIYGNSNRPSGVPDRFSGSKSGTSASLAITGLQAEDGADYYCQSYDSSLTGVVFGGGTKLTVLG
B12: PL3 (full-length, N297A mutant human IgG1) (antibody, V domains shown)
VH: B11 VH with A33T, G99S, I100R, G101D, S102G, M116L
VL: QSVVTQPPPVSGAPGQRVTISCTGSSSNIGAGYDVHWYQQLPGTAPKLLIYGNSNRPSGVPDRFSGSKSGTSASLAITGLQAEDEADYYCQSYDSSLSAPVVFGGGTKLTVLG
B13: PL1 (full-length, N297A mutant human IgG1) (antibody, V domains shown)
VH: QIQLVQSGAEVKKPGSSVKVSCKASGGTFSSYAISWVRQAPGQGLEWMGRIIPILGIANYAQKFQGRVTITAGESTSTAYMELSSLRSEDTAVYYCAREGSSGWLGVLDYWGQGTLVTVSS
VL: B11 VL with S2A, P8S, R24G, I29V, H33Y, G85E, T98S, V100W

Tests used:
[1] = molecular target: T1, human PD-L1 on cells (PHA-activated human T cells); PD-L1-transfected CHO-S cells; A375 melanoma cells; … (human, UniProt Q9NZQ7 19-290); experiment: flow cytometry on NCI-H292 human NSCLC cells, biotin-labeled anti-human IgG Fcγ and streptavidin-PE, MFI
T1 construct: whole, on cells; also called PD-L1 expressing T cells; PD-L1 expressing CHO-S cells
T1 sequence (Q9NZQ7 19-290): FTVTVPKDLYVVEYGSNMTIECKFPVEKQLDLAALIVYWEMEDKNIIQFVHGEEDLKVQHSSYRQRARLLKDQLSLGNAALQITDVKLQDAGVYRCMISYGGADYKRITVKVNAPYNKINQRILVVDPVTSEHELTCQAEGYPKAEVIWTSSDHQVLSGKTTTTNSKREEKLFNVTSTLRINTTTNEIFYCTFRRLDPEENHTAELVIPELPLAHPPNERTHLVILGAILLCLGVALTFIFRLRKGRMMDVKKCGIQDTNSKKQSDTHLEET

[2] = molecular target: T1, human PD-L1 on cells (PHA-activated …); experiment: flow cytometry on A375 human melanoma cells, biotin-labeled anti-human IgG Fcγ and streptavidin-PE, MFI
[3] = molecular target: T1, human PD-L1 on cells (PHA-activated …); experiment: flow cytometry on PHA-activated human CD3+ T cells, FITC-labeled anti-human IgG Fcγ, MFI
Protocol: Human T cells were isolated from PBMC using MagniSortTM Human T Cell Enrichment Kit (eBioscience). Isolated T cells were activated by 5 μg/mL phytohemagglutinin (PHA) for 3 days to stimulate the PD-L1 expression. Activated T cells were collected and incubated in FACS buffer (PBS with 2% FBS) with human Fc blocker (eBioscience) for 20 minutes at 4° C. Binding of anti-PD-L1 monoclonal antibody was assessed by incubating the activated T cells with the serial-diluted antibodies in FACS buffer. The cells were washed with flow buffer and the binding was detected with a FITC-labeled rabbit anti-human IgG FcγAb. Cells were also stained with mouse anti-human CD3 PE-Cy7 (eBioscience) for gating CD3-positive T cells. Flow cytometric analyses were performed using the Cytomics FC 500 (Beckman Coulter Inc.).

[4] = molecular target: T1, human PD-L1 on cells (PHA-activated …); experiment: flow cytometry blocking assay: PD-L1 expressing CHO-S cells incubated with antibody, then biotin-labeled PD-1-Fc and streptavidin-PE; MFI of bound PD-1
Protocol: PD-L1 expressing CHO-S cells were suspended in FACS buffer (PBS with 4% FBS). Various concentrations of tested antibodies were added to the cell suspension (3.5E5 cells/well) and incubated at 4° C. for 30 minutes. […] The cells were washed and then stained with streptavidin-PE at 4° C. for 30 minutes. Flow cytometric analyses were performed using the Cytomics FC 500 (Beckman Coulter Inc.).
Anti-PD-L1 reference antibody and Avastin were used as the positive and negative control, respectively.

[5] = molecular target: T1, human PD-L1 on cells (PHA-activated …); experiment: flow cytometry on PHA-activated human T cells, biotin-labeled anti-human IgG Fcγ and streptavidin-PE, MFI
[6] = molecular target: T2, recombinant human PD-L1/Fc fusion protein (human, UniProt Q9NZQ7 19-238); experiment: ELISA: human PD-L1/Fc coated (15 ng/well), serially diluted antibody, HRP-conjugated secondary antibody, TMB, A450
T2 construct: also called hPD-L1 ECD-Fc; not shown: Fc part
T2 sequence (Q9NZQ7 19-238 limits assumed): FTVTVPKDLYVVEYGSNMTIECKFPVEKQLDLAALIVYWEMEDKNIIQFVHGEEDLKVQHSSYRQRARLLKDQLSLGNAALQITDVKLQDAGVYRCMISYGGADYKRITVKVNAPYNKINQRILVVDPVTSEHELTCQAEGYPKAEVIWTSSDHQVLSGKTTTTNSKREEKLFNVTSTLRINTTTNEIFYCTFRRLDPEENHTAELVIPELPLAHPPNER
Protocol: ELISA assays were performed to assess the binding of selected antibodies to recombinant human PD-L1/Fc fusion proteins. Fifteen nanograms per well of human PD-L1/Fc proteins were coated on 96-well EIA microplate overnight at 4° C. After blocking with 5% skim milk, serially diluted antibodies were added and incubated at RT for 1 hour. The unbound antibodies were removed and wells were washed with PBST twice. The HRP-conjugated secondary antibody was added to the wells, and, following an incubation, excess secondary antibody was washed away. TMB was added to the wells, and following incubation, the reaction was stopped, and HRP activity was measured by monitoring the increase in absorbance at 450 nm.

human PD-L1 ECD-His [7] = molecular target: T3, human PD-L1 ECD-His (human, UniProt Q9NZQ7 19-238); experiment: SPR, 25 C, antibody captured by anti-human IgG Fc, hPD-L1_ECD-His analyte, 1:1 fit
T3 construct: extracellular domain; Analyte in all SPR and BLI runs; also called hPD-L1_ECD-His; hPD-L1 ECD-His; not shown: His tag
T3 sequence (Q9NZQ7 19-238): as the sequence (Q9NZQ7 19-238 limits assumed) above
Protocol: Experiments were carried out at 25° C., and measurements were made with serial dilutions of hPD-L1_ECD-His from 55.4 nM to 11.1 nM passing over the captured antibodies in HBS-P+ buffer supplemented with 0.1% (w/v) BSA with a flow rate of […]. All data were analyzed with the evaluation software and curves were fit with a 1:1 Langmuir binding model. Data are representative of two independent experiments performed in duplicate.

human PD-L1 ECD-His [8] = molecular target: T3, human PD-L1 ECD-His; experiment: SPR, ratio of KD to ref-1
human PD-L1 ECD-His [9] = molecular target: T3, human PD-L1 ECD-His; experiment: SPR, hPD-L1-His, comparison of IgG isotypes of PL2#3
human PD-L1 ECD-His [10] = molecular target: T3, human PD-L1 ECD-His; experiment: SPR, ratio of KD to ref-1; remark: listed apart in the source
Protocol: (§1) The binding affinity and kinetics were measured using surface plasmon resonance (SPR). […] Experiments were carried out at 25° C., and measurements were made with serial dilutions of hPD-L1-His from 19.1 nM to 0.71 nM passing over the captured antibodies in HBS-P+buffer supplemented with 0.1% (w/v) BSA with a flow rate of 25 μL/min. All data were analyzed with the evaluation software and curves were fit with a 1:1 Langmuir binding model. All the data are representative of two independent studies performed in duplicate.

human PD-L1 ECD-His [11] = molecular target: T3, human PD-L1 ECD-His; experiment: SPR, 25 C, antibody captured by anti-human IgG Fc, hPD-L1-His analyte, 1:1 fit
Protocol: as §1

Binder	EC50 (read off the curve) [3] [µg/mL]	IC50 (read off the curve) [4] [µg/mL]	EC50 (read off the curve) [6] [µg/mL]	Kd (human PD-L1 ECD-His [7]) [nM]	koff (human PD-L1 ECD-His [7]) [s⁻¹]	kon (human PD-L1 ECD-His [7]) [M⁻¹ s⁻¹]	Improvement over ref-1 (human PD-L1 ECD-His [8]) [fold]	Kd (human PD-L1 ECD-His [9]) [nM]	koff (human PD-L1 ECD-His [9]) [s⁻¹]	kon (human PD-L1 ECD-His [9]) [M⁻¹ s⁻¹]	Improvement over ref-1 (human PD-L1 ECD-His [10]) [fold]	Kd (human PD-L1 ECD-His [11]) [nM]	koff (human PD-L1 ECD-His [11]) [s⁻¹]	kon (human PD-L1 ECD-His [11]) [M⁻¹ s⁻¹]	further results
B1	~0.005	~0.2													EC50 (read off the curve) [1]: ~0.01 µg/mL; EC50 (read off the curve) [2]: ~0.002 µg/mL; EC50 (read off the curve) [5]: ~0.004 µg/mL
B2	~0.005	~0.05	~0.009	8.72	0.0039	438000									
B3							0.41	1.56	0.00193	1.25e+06					
B4											1.21	6.96	0.00217	747000	
B5											2.74	3.07	0.00221	812000	
B6							2.53	0.25	0.000276	1.14e+06					
B7											6.62	1.27	0.00099	882000	
B8											10.8	0.779	0.00143	2.04e+06	
B9							5.36	0.118	0.000162	1.34e+06	16.3	0.516	0.000557	1.32e+06	
B10							2.64	0.239	0.000293	1.26e+06					
B11	~0.03	~0.2	~0.03	6.68	0.00267	416000									
B12	~0.04	~0.1	~0.02	11.9	0.0041	348000									
B13		~0.02	~0.004	15.8	0.00453	291000									

Source: patent US20190225691A1 (SHANGHAI HENLIUS BIOTECH, published 2019)
